Sequences and labels used below:
B1: A12-E01 (scFv, V domains shown, not shown: small tags and cut ends)
VH: EVQLVESGGGLVQPGRSLRLSCAASGFTFDEYGMHWVRQAPGKGLEWVSGVSWNSGSIAYADSVRGRFTISRDNAKNSLYLQMNSLRAEDTALYYCAKSRSMDVWGQGTTVTVSS
VL: QSALTQPASVSGSPGQSITISCTGSSSDVGGYNYVSWYQQHPGKAPKLMIYDVTKRPSGVSNRFSGSKSGNTASLTISGLQAEDEADYYGSYSNNNFYVFGTGTKVTVLG
modifications: linker not given
B2: A12-E04 (scFv, V domains shown, not shown: small tags and cut ends)
VH: B1 VH with S99G, S101L, M102F
VL: B1 VL with N95S
modifications: linker not given
B3: A12-E05 (scFv, V domains shown, not shown: small tags and cut ends)
VH: B1 VH with S99G, S101I, M102L
VL: B1 VL with S93N, N95S, N96T
modifications: scFv linker not given
B4: A12-H04 (scFv, V domains shown, not shown: small tags and cut ends)
VH: B1 VH with S99G, S101L, M102L
VL: B1 VL with S91A, N95T
modifications: linker not given

Positions count from the first letter of the chain named.

For one experiment, the target named is soluble human FcRn (human) (UniProt P55899). In words: ELISA on coated shFcRn, scFv 100 ng/mL, pH 7.4. A general note: ELISA stands for enzyme-linked immunosorbent assay.
Sequence of soluble human FcRn (human) (P55899 24-297, chain 1 of 2): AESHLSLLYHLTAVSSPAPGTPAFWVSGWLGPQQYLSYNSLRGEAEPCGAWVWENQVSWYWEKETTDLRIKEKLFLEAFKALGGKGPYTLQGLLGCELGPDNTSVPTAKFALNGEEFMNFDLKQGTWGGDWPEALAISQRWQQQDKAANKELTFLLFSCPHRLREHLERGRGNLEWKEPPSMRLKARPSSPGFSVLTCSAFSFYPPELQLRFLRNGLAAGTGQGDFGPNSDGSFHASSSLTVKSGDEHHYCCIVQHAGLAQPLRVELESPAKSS
Sequence of soluble human FcRn (human) (P61769 21-119, chain 2 of 2, further chain): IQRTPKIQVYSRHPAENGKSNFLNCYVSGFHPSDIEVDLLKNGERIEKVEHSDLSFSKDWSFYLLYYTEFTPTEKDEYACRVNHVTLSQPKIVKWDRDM
B1 displayed an ELISA (OD450) of 1.05 OD450.

Regarding B2, the ELISA (OD450) was 1.29 OD450.

Regarding B3, the ELISA (OD450) was 1.8 OD450.

As to B4, the ELISA (OD450) stood at 1.57 OD450.

A further experiment has the same target. Put plainly: ELISA on coated shFcRn, scFv 100 ng/mL, pH 6.0.
The molecule B1 came in with an ELISA (OD450) of 1.71 OD450.

B2 had an ELISA (OD450) of 1.59 OD450.

As to B3, the ELISA (OD450) turned out to be 2.06 OD450.

B4 returned an ELISA (OD450) of 2.26 OD450.
